The subject of series [1] is target cell lines expressing a non-secretory form of a luciferase. Put plainly: Assay for cytotoxic activity (Matador assay, luciferase release). In kind it is cell-based. The conditions noted are these: TRAC-targeted T cells, versus construct SEQ ID NO: 23329. How it is done:
Cell lines engineered to express luciferases (e.g., GLuc or NLuc) for measuring cytotoxicity of different constructs targeting different cell surface and intracellular antigens are provided in Table C-1. Cells were cultured at 37° C., in a 5% CO2 humidified incubator. The cell lines were obtained from ATCC, NIH AIDS reagent program or were available in the laboratory.
The generation of Chimeric antigen receptor (e.g., 2nd generation CARs, SIRs, Ab-TCR and TFP etc.), the generation and use of GGS-NLuc fusion proteins (Topanga and Malibu-Glo assays), and the generation and use of luciferase (e.g., GLuc) reporter cell lines for measurement of cellular cytotoxicity using the Matador assays have been described (PCT/US2017/024843, PCT/US2017/025602, PCT/US2017/052344, PCT/US2017/064379 and PCT/US2018/53247).
(C) Assay for Cytotoxic Activity in vitro and in vivo: The uninfected T cells or those expressing a control vector or SAR are cocultured with the target cell lines expressing a non-secretory form of a luciferase (such as GLuc, NLuc, Turboluc 16 etc.) for 4-96 hours and induction of cell lysis examined by measuring the luciferase activity as described in PCT/US17/52344.

The subject of a further series is target cells. Put plainly: Xenograft model in immunodeficient mice. It is filed as in vivo. The settings on record: TRAC-targeted T cells, versus construct SEQ ID NO: 23329. The text has this:
Animal models can also be used to measure SAR activity. For example, xenograft model using human cancer associated antigen described herein-specific SAR^+ T cells to treat a primary human pre-B-ALL in immunodeficient mice can be used. Dose dependent SAR treatment response can be evaluated. See, e.g., Milone et al., Molecular Therapy 17(S): 1453-1464 (2009). Assessment of cell proliferation and cytokine production has been previously described, e.g., at Milone et al., Molecular Therapy 17(S): 1453-1464 (2009). Cytotoxicity can be assessed by a standard ^51Cr-release assay or Matador assay. Imaging technologies can be used to evaluate specific trafficking and proliferation of SIRs in tumor-bearing animal models.
The cells expressing the SAR constructs are exposed to RAJI and L363 target cells and tested in functional assays as described above. […] It is also observed that co-expression of the constant chains of both TCRγ and TCRδ can also rescue the expresson of SARs on TFP backbone in αβ T cells in which the expression of endogeneous TCRα and/or TCRβ constant chains has been eliminated by insertion of the SAR expresson cassette at the endogenous TRAC or/and TRBC loci. Exemplary constructs to express TCRγ and TCRδ chains are provided in SEQ ID NO: 23333 and 23334, respectively.

Series [2] relates to Raji cells expressing a membrane anchored scFv targeting Dsg3. Put plainly: JNG assay, co-culture with Raji cells expressing a membrane anchored scFv targeting Dsg3. The conditions noted are these: compared to parental Raji cells. In kind it is cell-based. How it is done:
Cellular supernatant is collected and assayed for the induction of cytokines (e.g., IL2).
JNG (Jurkat cells expressing EGFP under an NFAT promoter) were infected with lentiviral vectors encoding different single chain and multi-chain SARs by spinfection in the presence of 8 µg/ml of Polybrene® (Sigma, Catalog no. H9268). The Jurkat-NFAT-GFP cells are engineered in such a way that the IL-2 promoter, which carries NFAT binding sites, is cloned upstream of the GFP gene. These cells have been used to study signaling via TCR and CAR. The different SARs were stably expressed in Jurkat NFAT-GFP cells by lentiviral mediated gene transfer, followed by selection with puromycin or blasticidin. No drug selection was used in case the construct lacked an antibiotic resistance gene. […] GFP expression was monitored by FACS analysis. […] The structure of different constructs can be determined based on their names. […] The sequence of the other constructs in the table can be similarly determined from their names and by referring to the different Tables of this disclosure that provide the names and SEQ ID NO of the different modules. Alternatively, the composition and modular architecture of the different SAR constructs can be determined from their sequences by bioinformatics tools, including using nucleic acid and amino acids homology searches. […]

In another series the test system is HepG2 cells. In kind it is cell-based.

B1: SEQ ID NO: 23330: targeting construct coexpressing a TCRα constant chain with a SAR on TFP backbone targeting BCMA and CD22, directed to the TRAC locus (protein)
chain: FKIPIEELEDRVFVNCNTSITWVEGTVGTLLSDITRLDLGKRILDPRGIYRCNGTDIYKDKESTVQVHYRMCQSCVELDPATVA
On to B1, for which the cytotoxicity entry in series [1] was “greater”. The “in vivo anti-tumor activity against the target cells” value in the series on target cells is “greater”.

B2: CD8SP-Dsg3-EC1-EC2-L693-IgCL-TCRb-wt2-opt-6MD-F-P2A-IgHSP-CD20-vHH2-HCD25-G4S-CD19-hu-mROO5-1-vH-IgG1-CH1-TCRa-wt2-opt-6MD-F-F2A-PAC (protein)
chain: MALPVTALLLPLALLLHAARPACEWVKFAKPCREGEDNSKRNPIAKITSDYQATQKITYRISGVGIDQPPFGIFVVDKNTGDINITAIVDREETPSFLITCRALNAQGLDVEKPLILTVKILDINDNPPVFSQQIFMGEIEENSASNSLVMILNATDADEPNHLNSKIAFKIVSQEPAGTPMFLLSRNTGEVRTLTNSLDREQASSYRLVVSGADKDGEGLSTQCECNIKVKDVNDNFPMFRDSLEGQPKANPTVTLFPPSSEELQANKATLVCLISDFYPGAVTVAWKADGSPVKAGVETTKPSKQSNNKYAASSYLSLTPEQWKSHRSYSCQVTHEGSTVEKTVAPTECSGRADCGFTSESYQQGVLSATILYEILLGKATLYAVLVSALVLMAMVKRKDSRGRAKRSGSGATNFSLLKQAGDVEENPGPTSATMDWIWRILFLVGAATGAHSGPQVQLQESGGGLAQAGGSLRLSCAASGRTFSMGWFRQAPGKEREFVAAITYSGGSPYYASSVRGRFTISRDNAKNTVYLQMNSLKPEDTAVYYCAANPTYGSDWNAENWGQGTQVTVSSGSGGGGSGGGGSGGGGSFEQVQLQQPGAELVKPGASVKMSCKASGYAFSSYWINWMKQKPGQGLEWIGQIYPGDGDTNYNGKFKGRATLTADTSSSTAYMQLSSLTSEDSAVYFCARSITTVVGCAMDYWGQGTSVTVSSTRASTKGPSVFPLAPSSKSTSGGTAALGCLVKDYFPEPVTVSWNSGALTSGVHTFPAVLQSSGLYSLSSVVTVPSSSLGTQTYICNVNHKPSNTKVDKRVEPKSCIPEDTFFPSPESSCDVKLVEKSFETDTNLNFQNLSVIGFRILLLKVAGFNLLMTLRLWSSRAKRSGSGVKQTLNFDLLKLAGDVESNPGPSRGHMTEYKPTVRLATRDDVPRAVRTLAAAFADYPATRHTVDPDRHIERVTELQELFLTRVGLDIGKVWVADDGAAVAVWTTPESVEAGAVFAEIGPRMAELSGSRLAAQQQMEGLLAPHRPKEPAWFLATVGVSPDHQGKGLGSAVVLPGVEAAERAGVPAFLETSAPRNLPFYERLGFTVTADVEVPEGPRTWCMTRKPGA
For B2, in series [2], the GFP induction result is “increased GFP induction”.

B3: 22257 (protein)
chain: MGPRLLFWALLCLLGTGPVEAGVTQSPTHLIKTRGQQATLRCSPISGHTSVYWYQQALGLGLQFLLWYDEGEERNRGNFPPRFSGRQFPNYSSELNVNALELEDSALYLCASSLGGPRGLAGLRGDEQFFGPGTRLTVLEGTGGGGSGGGEFDIQMTQSPSSLSASVGDRVTITCKASDHINNWLAWYQQKPGQAPKLLIYGATTLETGVPSRFSGSGSGTDYTLTISSLQPEDFATYYCQQSWNTPWTFGQGTKLEIKRLEGQPKANPTVTLFPPSSEELQANKATLVCLISDFYPGAVTVAWKADGSPVKAGVETTKPSKQSNNKYAASSYLSLTPEQWKSHRSYSCQVTHEGSTVEKTVAPTECSGRADCGFTSESYQQGVLSATILYEILLGKATLYAVLVSALVLMAMVKRKDSRGRAKRSGSGATNFSLLKQAGDVEENPGPTSATMDWIWRILFLVGAATGAHSGPQVQLQESGGGLAQAGGSLRLSCAASGRTFSMGWFRQAPGKEREFVAAITYSGGSPYYASSVRGRFTISRDNAKNTVYLQMNSLKPEDTAVYYCAANPTYGSDWNAENWGQGTQVTVSSGSGGGGSGGGGSGGGGSFEQVQLQQPGAELVKPGASVKMSCKASGYAFSSYWINWMKQKPGQGLEWIGQIYPGDGDTNYNGKFKGRATLTADTSSSTAYMQLSSLTSEDSAVYFCARSITTVVGCAMDYWGQGTSVTVSSTRASTKGPSVFPLAPSSKSTSGGTAALGCLVKDYFPEPVTVSWNSGALTSGVHTFPAVLQSSGLYSLSSVVTVPSSSLGTQTYICNVNHKPSNTKVDKRVEPKSCIPEDTFFPSPESSCDVKLVEKSFETDTNLNFQNLSVIGFRILLLKVAGFNLLMTLRLWSSRAKRSGSGVKQTLNFDLLKLAGDVESNPGPSRGHMTEYKPTVRLATRDDVPRAVRTLAAAFADYPATRHTVDPDRHIERVTELQELFLTRVGLDIGKVWVADDGAAVAVWTTPESVEAGAVFAEIGPRMAELSGSRLAAQQQMEGLLAPHRPKEPAWFLATVGVSPDHQGKGLGSAVVLPGVEAAERAGVPAFLETSAPRNLPFYERLGFTVTADVEVPEGPRTWCMTRKPGA
As for B3, the “NFAT-GFP ASSAY: HepG2” value in the series with HepG2 cells is “RAJI (2+), HepG2 (-/^+)”.

Values taken from patent US20230212319A1, “NOVEL ANTIGEN BINDING DOMAINS AND SYNTHETIC ANTIGEN RECEPTORS INCORPORATING THE SAME” (University of Southern California, priority 2020, published 2023).
